From US20200172626A1

Molecular target: human 4-1BB expressed on cells (human) (UniProt Q07011)
Test: flow cytometry dot plot (CD8-BV510 against BBK-4-Dylight488) on human CD8+ T cells activated with anti-CD3 for 2 days; antibody at 25 ng/ml, anti-mIgG-Dylight488

human 4-1BB expressed on cells (human), sequence (Q07011 24-255 limits assumed): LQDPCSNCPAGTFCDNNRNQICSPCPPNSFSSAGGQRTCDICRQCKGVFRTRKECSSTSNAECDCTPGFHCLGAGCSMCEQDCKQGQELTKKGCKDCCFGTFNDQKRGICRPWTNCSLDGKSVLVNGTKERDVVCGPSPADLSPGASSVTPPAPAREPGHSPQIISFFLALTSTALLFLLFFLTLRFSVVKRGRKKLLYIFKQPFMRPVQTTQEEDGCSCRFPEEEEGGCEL

Substance: BBK-4 murine anti-human 4-1BB antibody
- % of 4-1BB-positive CD8 T cells: 1.72%
